Source: US8198235B2, “Use of GILZ protein expressed in dendritic cells to modulate an antigen-specific immune response” (Assistance Publique-Hopitaux de Paris, priority 2004, dated 2012)

Key:
Type in all cases: cell-based, human
regulatory T lymphocytes = experiment: Induction of regulatory T cells: sensitized CD4+ T cells added to autologous PBMCs stimulated with PPD or CMV; conditions: CD4+ T sensitized with PPD-loaded dendritic cells treated with dexamethasone and control siRNA
Source text: To evaluate the induction of the regulatory T cells (Tregs), immature monocyte-derived dendritic cells treated on the fifth day of culture (D5) with a controlled siRNA or an siRNA targeting GILZ (siRNA GILZ) alone, or else with either dexamethasone (DEX) or IL-10, or not treated, and then treated with the PPD on D7, were cocultured with CD4^+ T cells, as described in example 2. The CD4^+ T cells were purified on the seventh day of DC-CD4^+ T coculture and added in increasing amounts to 10^5 autologous PBMCs stimulated with PPD (1 μg/ml, STATENS SERUM INSTITUTE) or the cytomegalovirus (CMV, 25 μg/ml, BEHRING).
The hypothesis that the GILZ-expressing dendritic cells inhibit the CD4^+ T lymphocyte response by inducing regulatory T lymphocytes during antigen presentation was verified experimentally. Dendritic cells were treated with a control or anti-GILZ siRNA, alone or with dexamethasone, and with PPD (first culture). After washing, the dendritic cells were used to stimulate autologous CD4^+ T lymphocytes. The CD4^+ T lymphocytes of this second culture (sensitized CD4^+ T lymphocytes) were purified and added in increasing amounts to autologous PBMCs stimulated either with PPD or with CMV (third culture). The CD4^+ T lymphocytes sensitized with nontreated dendritic cells or dendritic cells treated with a control siRNA have no effect on the proliferative response of the third culture. […]

GILZ gene = experiment: Quantitative RT-PCR analysis of GILZ gene expression in monocyte derived dendritic cells; conditions: added on fifth day of culture; Dex 10^-7 M, IL-10 100 ng/ml, TGFβ 20 ng/ml; detected before and after CD40L
Procedure: (§1) Immature monocyte derived dendritic cells (iMDDCs) were prepared as described in Palucka et al., J. Immunol., 1998, 160, 4587-4595, apart from minor modifications. Briefly, human monocytes were isolated from the peripheral blood mononucleocell fraction by negative selection, according to the manufacturer's (DYNAL) recommendations. The monocytes (1 to 2×10^5 cells/ml) were cultured for 7 days in the presence of GM-CSF and IL-4 (100 ng/ml and 50 ng/ml, respectively, SCHERING-PLOUGH). The maturation of the dendritic cells (MDDCs) was induced in the presence of CD40L (250 ng/ml; IMMUNEX). Dexamethasone (DEX, SIGMA), recombinant human IL-10 (rhIL-10, DNAX) and TGFβ (R&D) were used at the following respective concentrations: 10^−7 M, 100 ng/ml and 20 ng/ml. For the in vivo experiments, the antigen-presenting cells (APCs) were purified using the monocyte negative selection kit according to the manufacturer's (DYNAL) recommendations.
The expression of the human GILZ gene was analyzed by real time RT-PCR according to the manufacturer's recommendations (Lightcycler™, ROCHE), using the pair of primers described in Berrebi et al. BLOOD, 2003, 101, 729-738 and the human β-actin gene as internal control.

[1] = test system: monocyte derived dendritic cells; experiment: Dendritic cell phenotype by flow cytometry (CD80, CD83, CD86, B7-H1); conditions: treated D5, CD40L D7, phenotype D9
Procedure: as §1
The dendritic cell phenotype was analyzed by four-color flow cytometry, using the following monoclonal antibodies: phycoerythrin-coupled anti-CD83 (CD83-PE, COULTER); phycoerythrin-coupled anti-CD80 (CD80-PE, BD BIOSCIENCES); anti-B7-H1 (CLINISCIENCES) and phycoerythrin-coupled anti-CD86 (CD86-PE, BD PHARMINGEN). The anti-B7-H1 antibody is detected using a phycoerythrin-coupled secondary antibody (BD PHARMINGEN). […]

CCL3, CCL5 and CXCL8 = experiment: Chemokine ELISA in dendritic cell culture supernatant after CD40L; conditions: dendritic cells treated before addition of CD40L
Procedure: as §1
The production of chemokines in the culture supernatant of the dendritic cells was analyzed using ELISA kits (R&D SYSTEMS) according to the manufacturer's instructions.

Row | Molecule | anti-CMV response of the third culture (regulatory T lymphocytes) | expression of GILZ (RT-PCR) (GILZ gene) | expression of B7-H1 [1] | expression of CD80, CD83 and CD86 [1] | CD40L-induced production of the chemokines CCL3, CCL5 and CXCL8 (CCL3, CCL5 and CXCL8)
1 | C[C@@H]1C[C@H]2[C@@H]3CCC4=CC(=O)C=C[C@]4(C)[C@@]3(F)[C@@H](O)C[C@]2(C)[C@@]1(O)C(=O)CO [dexamethasone] | no effect |  |  |  | 
2 | TGFβ |  | stimulates the expression of GILZ |  |  | 
3 | IL-10: recombinant human IL-10 (rhIL-10, DNAX) (protein, UniProt P22301 19-178, looked up) Interleukin-10: SPGQGTQSENSCTHFPGNLPNMLRDLRDAFSRVKTFFQMKDQLDNLLLKESLLEDFKGYLGCQALSEMIQFYLEEVMPQAENQDPDIKAHVNSLGENLKTLRLRLRRCHRFLPCENKSKAVEQVKNAFNKLQEKGIYKAMSEFDIFINYIEAYMTMKIRN |  | stimulates the expression of GILZ | stimulate | inhibit | partially inhibited
